Results reported in US20100111916A1.
Values belong to the substance of their own block, whether it stands above or below them.

Key:
Test in all cases: cell-based or functional assay
CD80 (mouse) = CD80 (mouse) (UniProt Q00609)
CD54 (mouse) = CD54 (mouse) (UniProt P13597)
[1] = biological target: H-2K^b/OVAI peptide complex (mouse)

Sequence of UniProt Q00609 (Q00609 38-306): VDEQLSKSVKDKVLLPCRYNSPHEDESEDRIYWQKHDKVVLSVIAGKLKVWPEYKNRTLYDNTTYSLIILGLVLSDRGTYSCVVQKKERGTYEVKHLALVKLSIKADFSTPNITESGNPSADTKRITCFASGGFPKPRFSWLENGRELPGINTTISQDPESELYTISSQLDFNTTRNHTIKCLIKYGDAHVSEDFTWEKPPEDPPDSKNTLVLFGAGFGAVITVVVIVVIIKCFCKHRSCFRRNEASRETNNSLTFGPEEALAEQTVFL
Sequence of UniProt P13597 (P13597 28-537): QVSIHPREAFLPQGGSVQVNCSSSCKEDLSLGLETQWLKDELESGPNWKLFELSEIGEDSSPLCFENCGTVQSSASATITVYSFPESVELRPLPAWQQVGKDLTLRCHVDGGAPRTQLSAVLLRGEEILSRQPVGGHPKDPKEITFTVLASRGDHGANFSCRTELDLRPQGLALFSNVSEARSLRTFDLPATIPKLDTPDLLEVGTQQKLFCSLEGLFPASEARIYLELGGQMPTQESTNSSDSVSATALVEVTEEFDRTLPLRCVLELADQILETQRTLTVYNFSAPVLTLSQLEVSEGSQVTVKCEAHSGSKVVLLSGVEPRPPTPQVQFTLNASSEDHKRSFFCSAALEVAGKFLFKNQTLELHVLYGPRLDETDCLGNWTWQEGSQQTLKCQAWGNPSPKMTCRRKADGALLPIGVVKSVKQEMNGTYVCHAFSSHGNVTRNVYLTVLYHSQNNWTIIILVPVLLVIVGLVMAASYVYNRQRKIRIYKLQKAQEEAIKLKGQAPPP

inhibition of Th-APC-stimulated OT I CD8^+ T cell proliferative response by CTLA-4/Ig fusion protein (15 µg/ml) (CD80 (mouse)): 58%
inhibition of aTEXO-stimulated OT I CD8^+ T cell proliferative response by CTLA-4/Ig (10 µg/ml) (CD80 (mouse)): 49%
inhibition of mDCEXO-stimulated OT I CD8^+ T cell proliferative response by CTLA-4/Ig (10 µg/ml) (CD80 (mouse)): 56%
Substance: CD28 (from UniProt P31041 20-218) (receptor)

inhibition of Th-APC-stimulated OT I CD8^+ T cell proliferative response by anti-LFA-1 Ab (15 µg/ml) (CD54 (mouse)): 50%
inhibition of aTEXO-stimulated OT I CD8^+ T cell proliferative response by anti-LFA-1 Ab (10 µg/ml) (CD54 (mouse)): 52%
inhibition of mDCEXO-stimulated OT I CD8^+ T cell proliferative response by anti-LFA-1 Ab (10 µg/ml) (CD54 (mouse)): 49%
Substance: LFA-1 (from UniProt P24063 24-1162; P11835 24-771) (receptor)

inhibition of Th-APC-stimulated OT I CD8^+ T cell proliferative response by anti-MHC class I Ab (15 µg/ml) [1]: 38%
inhibition of aTEXO-stimulated OT I CD8^+ T cell proliferative response by anti-H-2K^b Ab (10 µg/ml) [1]: 49%
inhibition of mDCEXO-stimulated OT I CD8^+ T cell proliferative response by anti-MHC class I Ab (10 µg/ml) [1]: 62%
Substance: OVA-specific TCR of OT I CD8^+ T cells
